Reference: patent US20240287172A1 (SCIRHOM, published 2024)

T1: hiR2-FL-P532A-T7 (human, UniProt Q6PJF5 1-856)
T1 sequence: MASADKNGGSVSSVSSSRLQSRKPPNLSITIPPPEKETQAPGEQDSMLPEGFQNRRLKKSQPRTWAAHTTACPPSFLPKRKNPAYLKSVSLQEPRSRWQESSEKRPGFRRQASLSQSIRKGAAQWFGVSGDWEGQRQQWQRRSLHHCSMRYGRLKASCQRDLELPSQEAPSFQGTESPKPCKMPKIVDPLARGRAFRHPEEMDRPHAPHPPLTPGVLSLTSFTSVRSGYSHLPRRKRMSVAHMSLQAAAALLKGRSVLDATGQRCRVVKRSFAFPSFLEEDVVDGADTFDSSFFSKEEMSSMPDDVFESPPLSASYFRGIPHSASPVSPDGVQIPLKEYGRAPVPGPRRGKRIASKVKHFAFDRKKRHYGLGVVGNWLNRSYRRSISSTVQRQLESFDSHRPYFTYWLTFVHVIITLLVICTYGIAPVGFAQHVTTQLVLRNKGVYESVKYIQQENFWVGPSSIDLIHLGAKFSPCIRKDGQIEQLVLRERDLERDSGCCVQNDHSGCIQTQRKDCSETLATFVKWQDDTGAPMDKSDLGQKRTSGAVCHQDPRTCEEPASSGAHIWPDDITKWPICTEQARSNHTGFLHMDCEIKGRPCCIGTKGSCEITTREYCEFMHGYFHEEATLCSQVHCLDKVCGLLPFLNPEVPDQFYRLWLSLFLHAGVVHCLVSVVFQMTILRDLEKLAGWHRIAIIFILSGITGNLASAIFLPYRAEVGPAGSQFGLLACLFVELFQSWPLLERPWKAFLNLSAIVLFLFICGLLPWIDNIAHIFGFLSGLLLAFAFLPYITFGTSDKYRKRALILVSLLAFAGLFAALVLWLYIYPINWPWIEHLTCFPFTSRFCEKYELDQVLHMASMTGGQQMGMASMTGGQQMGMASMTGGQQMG

T2: hiR1-FL-WT-T7 (human, UniProt Q96CC6 1-855)
T2 construct: on MEF-DKO cells
T2 sequence: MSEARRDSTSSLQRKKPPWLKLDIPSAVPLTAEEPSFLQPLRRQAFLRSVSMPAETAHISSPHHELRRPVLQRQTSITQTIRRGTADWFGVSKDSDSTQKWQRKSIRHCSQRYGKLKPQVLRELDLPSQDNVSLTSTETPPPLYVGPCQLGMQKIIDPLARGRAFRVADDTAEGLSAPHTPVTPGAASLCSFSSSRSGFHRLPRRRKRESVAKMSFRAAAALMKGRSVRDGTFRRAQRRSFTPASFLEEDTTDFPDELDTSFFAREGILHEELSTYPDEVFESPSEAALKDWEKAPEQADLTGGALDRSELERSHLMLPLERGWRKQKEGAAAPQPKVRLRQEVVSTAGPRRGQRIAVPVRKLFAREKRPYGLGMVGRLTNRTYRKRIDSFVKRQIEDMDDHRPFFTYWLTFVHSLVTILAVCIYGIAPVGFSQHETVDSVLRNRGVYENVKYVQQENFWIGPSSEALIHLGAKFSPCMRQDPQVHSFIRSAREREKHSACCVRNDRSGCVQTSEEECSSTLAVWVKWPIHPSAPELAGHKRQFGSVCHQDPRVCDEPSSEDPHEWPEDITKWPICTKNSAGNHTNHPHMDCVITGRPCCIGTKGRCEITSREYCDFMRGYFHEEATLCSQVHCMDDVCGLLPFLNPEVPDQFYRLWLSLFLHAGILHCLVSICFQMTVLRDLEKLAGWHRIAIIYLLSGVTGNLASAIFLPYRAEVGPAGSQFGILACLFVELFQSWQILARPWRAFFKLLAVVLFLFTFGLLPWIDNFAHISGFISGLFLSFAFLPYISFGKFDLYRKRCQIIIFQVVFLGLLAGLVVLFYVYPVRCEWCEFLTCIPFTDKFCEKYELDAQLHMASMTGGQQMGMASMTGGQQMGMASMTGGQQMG

T3: hiR2-FL-T530P-T7 (human, UniProt Q6PJF5 1-856)
T3 sequence: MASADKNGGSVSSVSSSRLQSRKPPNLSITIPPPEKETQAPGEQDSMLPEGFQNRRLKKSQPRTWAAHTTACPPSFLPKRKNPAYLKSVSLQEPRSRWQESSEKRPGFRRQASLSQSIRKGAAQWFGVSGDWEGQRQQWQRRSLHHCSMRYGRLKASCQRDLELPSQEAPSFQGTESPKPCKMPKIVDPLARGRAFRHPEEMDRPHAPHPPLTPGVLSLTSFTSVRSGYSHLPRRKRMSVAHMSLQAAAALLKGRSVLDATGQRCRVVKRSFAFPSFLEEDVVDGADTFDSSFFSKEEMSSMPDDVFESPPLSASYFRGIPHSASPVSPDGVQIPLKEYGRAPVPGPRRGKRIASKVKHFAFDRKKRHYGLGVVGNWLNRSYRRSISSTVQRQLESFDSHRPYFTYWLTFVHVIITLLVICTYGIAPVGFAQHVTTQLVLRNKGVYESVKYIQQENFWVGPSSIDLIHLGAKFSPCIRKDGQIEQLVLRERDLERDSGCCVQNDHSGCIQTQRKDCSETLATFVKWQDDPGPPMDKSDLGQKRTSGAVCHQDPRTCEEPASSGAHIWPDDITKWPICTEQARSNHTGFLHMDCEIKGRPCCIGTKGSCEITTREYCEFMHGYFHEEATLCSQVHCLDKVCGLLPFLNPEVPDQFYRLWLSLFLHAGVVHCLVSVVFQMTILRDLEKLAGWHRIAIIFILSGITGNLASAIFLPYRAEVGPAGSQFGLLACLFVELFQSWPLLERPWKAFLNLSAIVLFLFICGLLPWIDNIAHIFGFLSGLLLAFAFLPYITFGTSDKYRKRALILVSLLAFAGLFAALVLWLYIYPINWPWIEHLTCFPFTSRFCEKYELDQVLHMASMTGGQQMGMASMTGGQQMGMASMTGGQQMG

B1: antibody 5 (antibody, V domains shown)
VH: QVTLKESGPGILQPSQTLSLTCSFSGFSLSTFGMGVGWIRQPSGKGLEWLAHIWWDDEKYYNSALKSRLTISKATSKNQAFLKIANVDTADTATYYCARISNYGSNYWYFNVWGTGTTVTVSS
VL: QVVLTQSPALMSASPGEKVTMTCSAGSSVSCMYWYQQKPGSSPRVLIYDTSNLASGVPARFTGSGSGTSYSLTISRMEAEDAASYYCQQWNSYPLTFGAGTKLELK
notes: mouse IgG, kappa light chain; also called clone #5; purified antibody 5
B2: antibody 44 (antibody, V domains shown)
VH: QVTLKESGPGILQPSQTLSLTCSFSGFSLSTFGMGVGWIRQPSEKGLEWLAHIWWDDDKYYNPALKSRLTISKDTSKNQIFLKITNVDTAETATYYCSRIGNYGSNYWYFDVWGTGTTVTVSS
VL: QIVLTQSPAVMSASPGEKVTMTCTASSSVYYMYWYQQTPGSSPRLLIYDTSNLASGVPVRFSGSGSGTSYSLTISRMEAEDAATYYCQQWNTYPLTFGAGTKLELK
notes: mouse IgG, kappa light chain; also called clone #44; purified antibody 44
B3: antibody 42 (antibody, V domains shown)
VH: QVTLKESGPGILQPSQTLSLTCSLSGFSLSTFGRGVGWIRQPSGKGLEWLAHIWWDDEKYYNPALKSRLTISKDTSKNQVFLRIANVDTADTATYYCARIQNYGSNYWYFDVWGTGTTVTVSS
VL: LIVLTQSPAIMSASPGEKVTMTCGATSRISYMFWYQQKPGSSPRVLIYDTSNLASGVPVRFSGSGSGTSYSLTISRVEAEDVATYYCQQWNSYPLTFGAGTKLELK
notes: mouse IgG, kappa light chain; also called clone #42; purified antibody 42
B4: antibody 43 (antibody, V domains shown)
VH: QVALKESGPGILQPSQTLSLTCSFSGFSLSTFGMGVGWIRQSSGKGLEWLANIWWDDDKYYNPALKSRLTISKDASKNQAFLKIANVDTADTATYYCARIGNYGSNYWYFDVWGTGTTVTVSS
VL: QIVLTQSPAIMSASPGERVTMTCSANSRISYMYWYQQKPGSSPRLLIYDTSNLASGVPVRFSGSGSGTSYSLTISRMEAEDAATYNCQQWSSYPLTFGAGTKLELK
notes: mouse IgG, kappa light chain; also called clone #43; purified antibody 43
B5: antibody 22 (antibody, V domains shown)
VH: QVTLKESGPGILQPSQTLSLTCSFSGFSLSTFGMGVGWIRQPSGKGLEWLAHIWWDDEKYYNSALKSRLTISKATSKNQVFLKIANVDTADTATYYCARISNYGSNYWYFNVWGTGTTVTVSS
VL: QVVLTQSPALMSASPGEKVTMTCSAGSSVSYMYWYQQKPGSSPRVLIYDTSNLASGVPARFTGSGSGTSYSLTISRMEAEDAATYYCQQWNSYPLTFGAGTKLELK
notes: mouse IgG, kappa light chain; also called clone #22; purified antibody 22
B6: antibody 34 (antibody, V domains shown)
VH: QVTLKESGPGILQPSQTLSLTCSFSGFSLSTFSLGVGWIRQSSGKGLEWLAHIWWDDEKYYNPALKSRLTISKDTSKNQVFLKIANVDAADTATYYCARAYYSKSYYALDYWGQGTSVTVSS
VL: DIQMTQSPSSLSASLGERVSLTCRASQEISGYLSWLQQKPDGTIKRLIYAASTLDSGVPKRFSGSRSGSDYSLAISSLESEDFADYYCLQYANFPFTFGSGTKLEIK
notes: mouse IgG, kappa light chain; also called clone #34; purified antibody 34
B7: antibody 48 (antibody, V domains shown)
VH: QVQLQQSGTELVRPGTSVKVSCKASGYAFTNYLIEWVKQRPGQGLEWIGVINPGSGFTKYNEKFKGKATLTADKSSSTVYMHLSSLTSEDSAVYFCARGLYRAMDYWGQGTSVTVSS
VL: DIQMTQSPASQSASLGESVTITCLASQTIATWLAWYQQKPGKSPQLLIYGATTLADGVPSRFSGGGSGTKFSFKISSLQAEDFVSYYCQQLYSTPYTFGGGTKLEIK
notes: mouse IgG, kappa light chain; also called clone #48; purified antibody 48
B8: antibody 50 (antibody, V domains shown)
VH: QVQLQQSGAELVRPGASVKVSCKASGYAFSNYLIEWVKQRPGQGLEWIGVINPGSGFTKYNEKFKGKATLTADKSSSTAYMQLSSLTSEDSAVYFCARGLYRAMDYWGQGTSVTVSS
VL: DIQMTQSPASQSASLGESVTITCLASQTIGTWLAWYQQKPGKSPQLLIYAAASLADGVPSRFSGGGSGTKFSFKISSLQAEDFVNYYCQQIYSTPYTFGGGTKLEIK
notes: mouse IgG, kappa light chain; also called clone #50; purified antibody 50

What was measured:
hiR2-FL-P532A-T7 = biological target: T1, hiR2-FL-P532A-T7; experiment: FACS, MEF-DKO cells, 3 µg/ml
hiR1-FL-WT-T7 = biological target: T2, hiR1-FL-WT-T7; experiment: FACS on MEF-DKO cells
hiR2-FL-T530P-T7 = biological target: T3, hiR2-FL-T530P-T7; experiment: FACS, MEF-DKO cells, 3 µg/ml

Binder | loss of binding vs wild type (hiR2-FL-P532A-T7) [%] | binding result (hiR1-FL-WT-T7) | loss of binding vs wild type (hiR2-FL-T530P-T7) [%]
B1 | ≥ 60 |  | 
B2 | ≥ 60 | no binding (tested: 3 µg/ml) | 
B3 | ≥ 60 | no binding (tested: 3 µg/ml) | ≥ 30
B4 | ≥ 60 | no binding (tested: 3 µg/ml) | 
B5 | ≥ 30 |  | 
B6 |  | no binding (tested: 3 µg/ml) | 
B7 |  |  | ≥ 30
B8 |  | no binding (tested: 3 µg/ml) | ≥ 30
